This test addresses T1, FGFR4 expressed on cells (L6-FGFR4 myoblasts; ZR-75-1 breast cancer cells) (UniProt P22455 22-802, limits assumed).
T1 construct: whole, on cells; also called L6-FGFR4 cells; FGFR4-transfected L6 myoblasts
Kind of test: FACS Scatchard on L6-FGFR4 cells, anti-rat-PE detection. How it is done: L6-FGFR4 cells were harvested by incubation with 10 mM EDTA in PBS and resuspended at 6 million cells per ml in FACS buffer (PBS pH 7.4, 3% FCS, 0.1% NaN₃). In a round-bottom microtiter plate, 100 μl of cell suspension were added to 100 μl of antibody solution containing antibodies 10F10 or 9A5 at concentrations between 31.25 and 0.01 μg/ml in FACS buffer. Antibody binding was allowed to proceed for 2 hours ice. Then, cells were washed twice with 250 μl FACS buffer per well, and resuspended in 200 μl of secondary antibody (anti-rat-PE; Jackson), diluted 1:50 in FACS buffer. After 45 minutes of incubation, cells were again washed twice in FACS buffer, then resuspended in […] of PBS for FACS analysis. Analysis was carried out on a Beckman-Coulter FACS. To determine the apparent affinity constant KDapp, mean fluorescence values were plotted against the ratio of mean fluorescence and the corresponding antibody contration ([M]). The calculated KDapp resulted from the inverse slope of the straight line (FIG. 2).

From patent publication US20100169992A1 (U3 PHARMA, published 2010) come the findings set out here.

T1 sequence (P22455 22-802 limits assumed): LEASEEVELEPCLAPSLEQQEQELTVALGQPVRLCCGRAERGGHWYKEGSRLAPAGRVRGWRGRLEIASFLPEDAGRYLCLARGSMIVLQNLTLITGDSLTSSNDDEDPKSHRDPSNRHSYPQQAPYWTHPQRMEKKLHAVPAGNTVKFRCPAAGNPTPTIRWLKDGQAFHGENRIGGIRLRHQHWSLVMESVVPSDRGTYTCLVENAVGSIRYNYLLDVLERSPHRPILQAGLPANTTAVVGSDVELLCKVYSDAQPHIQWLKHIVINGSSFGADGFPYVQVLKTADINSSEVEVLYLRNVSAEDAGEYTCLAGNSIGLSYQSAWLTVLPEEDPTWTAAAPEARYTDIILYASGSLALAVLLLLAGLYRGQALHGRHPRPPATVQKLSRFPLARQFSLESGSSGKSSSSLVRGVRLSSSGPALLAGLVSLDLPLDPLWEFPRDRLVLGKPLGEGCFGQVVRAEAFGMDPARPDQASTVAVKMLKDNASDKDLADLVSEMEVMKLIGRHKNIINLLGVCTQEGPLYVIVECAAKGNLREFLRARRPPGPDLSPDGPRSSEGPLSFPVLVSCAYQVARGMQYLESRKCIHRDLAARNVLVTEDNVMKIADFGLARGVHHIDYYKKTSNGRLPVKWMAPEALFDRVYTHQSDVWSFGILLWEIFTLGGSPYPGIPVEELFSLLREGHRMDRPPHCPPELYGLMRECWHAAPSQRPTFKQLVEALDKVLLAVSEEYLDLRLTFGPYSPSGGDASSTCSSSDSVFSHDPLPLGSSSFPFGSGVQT

B1: anti-FGFR4 antibody 9A5 (antibody, V domains shown)
VH: QVQLRESGPGLVQPSQTLSLTCTVSGFSLTFYHVSWVRQPPGKGLEWMGVIWTGGSTTYNSLLKSRLTISRDTSKSQVFLKMNSLQTEDTATYYCARGGGDRGYFAFWGPGTMVTVSS
VL: NTVMTQSPTSMFTSVGDRVTMSCKASQNVGINVGWYQQKTGQSPKRLIYWASNRDTGVPDRFTGSGSGTDFTLTISNMQAEDPAIYYCLQHNSYPWTFGGGTKLELKR
notes: Rat monoclonal antibody from a hybridoma
In the case of B1, the binding result is “binds”.

B2: anti-FGFR4 antibody 10F10 (antibody, V domains shown)
VH: EVQLKESGPGLVQPSQTLSLTCTVSGFSLTDYSVHWVRQPPGKGLEWMGVVWSSGSTAYNSALKSRLRITRDTSKSQAFLKMNSLQTEDTAIYYCTRPRYSSWFVYWGQGTLVTVSS
VL: DTVLTQSPALAVSLGQRVTISCRASKSVSTFIHWYQQKSGQQPKLLIYSASNTESGPSRFSGSGSGTDFTLTIDPVEADDIANYYCQQSNELPWTFGGGTKLELKR
notes: Rat monoclonal antibody from a hybridoma (rats immunised with FGFR4-ECD-GST)
Take B2: the binding result is given as “binds”.
